Source: patent publication US20090136500A1 (CISTHERA, published 2009)

Columns and labels:
[1] = molecular target: T1, mouse PAI-1 (mouse, UniProt P22777 23-402, limits assumed, n-terminal biotin label (in the P-ELISA)); assay: P-ELISA
T1 construct: also called murine PAI-1
T1 sequence (looked up): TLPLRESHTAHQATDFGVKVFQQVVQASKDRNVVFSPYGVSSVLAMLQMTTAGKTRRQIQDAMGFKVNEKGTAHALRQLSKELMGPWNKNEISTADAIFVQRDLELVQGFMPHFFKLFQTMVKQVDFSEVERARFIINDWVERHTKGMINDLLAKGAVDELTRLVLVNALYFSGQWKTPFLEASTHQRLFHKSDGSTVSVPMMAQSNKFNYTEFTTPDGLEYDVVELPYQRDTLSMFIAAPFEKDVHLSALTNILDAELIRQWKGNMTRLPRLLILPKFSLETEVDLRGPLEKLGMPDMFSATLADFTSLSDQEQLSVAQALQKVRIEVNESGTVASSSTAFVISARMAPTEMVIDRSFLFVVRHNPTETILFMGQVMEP

[2] = molecular target: T2, PAI-1 (antigen of Example 11, species not stated); assay: SPR-type biosensor, antibody captured on anti-human IgG surface at 5 densities, 25 C, global 1:1 fit
T2 construct: Its method text reads as if hP-1 and mP-1 were the antigens run over captured antibody, that is human and mouse PAI-1
T2 sequence (P05121 24-402): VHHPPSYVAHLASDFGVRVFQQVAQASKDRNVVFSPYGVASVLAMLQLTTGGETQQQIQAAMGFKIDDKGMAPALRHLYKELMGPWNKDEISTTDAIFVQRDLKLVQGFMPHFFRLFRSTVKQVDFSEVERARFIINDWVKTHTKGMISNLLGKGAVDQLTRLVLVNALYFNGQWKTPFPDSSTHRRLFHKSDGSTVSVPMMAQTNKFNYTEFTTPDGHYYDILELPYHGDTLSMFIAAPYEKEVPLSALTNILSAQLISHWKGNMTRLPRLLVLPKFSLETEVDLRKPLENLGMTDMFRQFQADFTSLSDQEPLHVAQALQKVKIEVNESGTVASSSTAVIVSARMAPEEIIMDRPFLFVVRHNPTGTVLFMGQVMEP
Experimental: This experiment was conducted to measure the binding constants for hP-1 (humanized mAb CT140) and mP-1 (mouse antibody 33B8).
hP-1 was captured onto an anti-human IgG surface (Cat-tag goat mAb) at 5 different surface densities. hP-1 and mP-1 were diluted to a starting concentration of 100 nM and tested in a 3-fold dilution series using PBS with 0.005% Tween-20 and 0.1 mg/ml BSA. Binding data were collected at 25° C. The association phase was monitored for 5 minutes and the dissociation phase was monitored for 2.5 hours. The response data for each antigen over the 5 different density mAb surfaces were globally fit to a simple 1:1 interaction model. A fit to the data was determined (data not shown) a binding constants were determined at 25° C.

[3] = molecular target: T3, rat PAI-1 (rat, UniProt P20961 24-402, n-terminal biotin label (in the P-ELISA)); assay: P-ELISA: biotin-labeled PAI-1 on streptavidin/Neutravidin coated wells, HRP-conjugated secondary antibody, O.D. 450. Target taken from the title printed in the panel; the legend paragraph 67 names FIG. 12C as mouse
T3 sequence (looked up): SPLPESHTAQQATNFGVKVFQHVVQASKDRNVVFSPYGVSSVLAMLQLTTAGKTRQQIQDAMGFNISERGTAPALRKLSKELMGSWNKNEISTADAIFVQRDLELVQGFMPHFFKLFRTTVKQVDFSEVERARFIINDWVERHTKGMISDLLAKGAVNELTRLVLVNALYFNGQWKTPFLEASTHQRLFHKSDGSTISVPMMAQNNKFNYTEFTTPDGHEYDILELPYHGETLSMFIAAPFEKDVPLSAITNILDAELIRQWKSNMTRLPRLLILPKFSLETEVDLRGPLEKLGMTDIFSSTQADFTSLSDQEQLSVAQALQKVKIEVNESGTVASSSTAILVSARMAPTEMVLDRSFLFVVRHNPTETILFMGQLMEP
Experimental: All reagents are brought to room temperature (18-23° C.) and dilutions are made in Wash Buffer (1×TBS, 0.1% BSA, 0.05% Tween). Briefly, protocol steps are as follows: [0546] Add 100 μL of Neutravidin™ Pierce#31000 (0.5 μg/ml in TBS) to 96-well Immulon-4 plates. Incubate 1 hour at room temperature (RT). [0547] Wash wells 3 times with 200 μl Wash Buffer. [0548] Add 50 μL of biotinylated biomolecule (0.06 nM) Incubate 1 hour at RT. [0549] Wash plate 3 times in Wash Buffer. [0550] Add 100 μL of 1° Ab Incubate 30 min RT [0551] Wash plate 3 times in Wash Buffer. [0552] Add 50 μL of […] (1:10,000) Incubate 30 min RT [0553] Wash plate 4 times in Wash Buffer. [0554] Add 100 μl TMB Reagent (substrate). Incubate at room temperature. [0555] Add 100 μL of 2 M Sulfuric Acid to stop development of the substrate. [0556] Plates were read using a […] filter with a 615-620 nm filter as the reference.
Binding of CT140 to rat, mouse, rabbit and human PAI-1 was determined by P-ELISA (see FIG. 12). The relative affinity of CT140 is human=rabbit>mouse>rat (FIG. 12A, FIG. 12B, FIG. 12C and FIG. 12D, respectively).

fold greater affinity relative to the parent mouse anti-PAI-1 [1]: > 10 fold
Kd [2]: 0.015 nM
koff [2]: 8e-06 s⁻¹
kon [2]: 530000 M⁻¹ s⁻¹
binding result [3]: binds
B1: CT140 (humanized version of murine monoclonal antibody 33B8, IgG4 with the hinge of IgG1) (antibody, V domains shown)
VH: QVQLVQSGAEVKKPGASVKVSCKASGYTFTNYGMNWVRQAPGQGLEWMGWINTYTGEPTYTDDFKGRFTMTLDTSISTAYMELSRLRSDDTAVYYCAKDVSGFVFDYWGQGTLVTVSS
VL: DIVMTQSPDSLAVSLGERATINCKSSQSLLNIIKQKNCLAWYQQKPGQPPKLLIYWASTRESGVPDRFSGSGSGTDFTLTISSLQAEDVAVYYCQQYYSYPYTFGQGTKLEIKR
notes: also called hP-1; humanized mAb CT140
